Measurements published in the DeepSol protein solubility set.

Assay: soluble on expression in E. coli; label from the status in PepcDB or PDB records

Sequence | soluble on expression in E. coli
MSLNLVSKLEETASEKPDSIACRFKDHMMTYQELNEYIQRFADGLQEAGMEKGDHLALLLGNSPDFIIAFFGALKAGIVVVPINPLYTPTEIGYMLTNGDVKAIVGVSQLLPLYESMHESLPKVELVILCQTGEAEPEAADPEVRMKMTTFAKILRPTSAAKQNQEPVPDDTAVILYTSGTTGKPKGAMLTHQNLYSNANDVAGYLGMDERDNVVCALPMFHVFCLTVCMNAPLMSGATVLIEPQFSPASVFKLVKQQQATIFAGVPTMYNYLFQHENGKKDDFSSIRLCISGGASMPVALLTAFEEKFGVTILEGYGLSEASPVTCFNPFDRGRKPGSIGTSILHVENKVVDPLGRELPAHQVGELIVKGPNVMKGYYKMPMETEHALKDGWLYTGDLARRDEDGYFYIVDRKKDMIIVGGYNVYPREVEEVLYSHPDVKEAVVIGVPDPQSGEAVKGYVVPKRSGVTEEDIMQHCEKHLAKYKRPAAITFLDDIPKNATGKMLRRALRDILPQGHHHHHH | soluble
MGSDKIHHHHHHMHININMDWLSAKGLPILGLDISTTAIKLVELSDAGKGMLRVERYIIEPLPKDAVSDGNIANLDQVADTLRHAWKTLGSRVKNVALALPSSAVITKKILAPASLTGIELENQVEAEANQVIPFALDEVNLDFQVLGPSPGSPDDMQILLAAARKEKVEDRVAAVEAAGLKALIMDVESYATQAAYEQIAHLLPNGGAGQTVAIIDVGAQNMHINILNDNESVYLREHGFGGNQLNNEIARRYGMSGEEAENAKRKGSLPESYELEVLQPYSETLAMEIGRALQLFTTSTQYRKIDQILLAGGGAMIPGLDEVVAQRTGTPTLVVNPFANMAVASKVRPQALTADAPSLFVACGLAMRRFDSQ | not soluble
MGSDKIHHHHHHMKNIFVFGADEFNLSLMRSLDSAHEYCFHELYQYSEVKTGKEFPVETLYEGALARLNSYPDSVDAIVGYLDFPVSTMLPLLCQSLGLPSPSFEAVLKCEHKYWSRLEQRRVIPEYIPNFCSVDPFKDDYRQQITLDYPFWLKPVKAVLSHLGFMVRDDSELEMAIIEIRKKIYCFAKPFNYLLQFADLPDEIAAVDGYHCIAEGIISHGQQCTLEGYVFDGKLCVYGTVDSIREGEHGSSFSRYQYPSSIPQPIQDKMIAVTERFLTAIDFDNGPFNIEYYWDKDSDHIWLLEINTRISKSHSPLFRNVDGKSHHQIMLDLALGKQPIFPHRKGLYRYSAKFMWRTHADAQVNRVPTEQEIQAITQRIGGTDIQLHVREGMRLSDLNYQDSYSYEIATVFIGGDSEQELLQKYHDVQQALPLELVPLL | not soluble
MPTSIQFQRSSTAAEAANATVRNYPHHHQKQVQKVSLTRGMADVPEHVELSHTHVVGPSQCFSVVVQDVEAPVSTVWSILSRFEHPQAYKHFVKSCHVVIGDGREVGSVREVRVVSGLPAAFSLERLEIMDDDRHVISFSVVGGDHRLMNYKSVTTVHESEEDSDGKKRTRVVESYVVDVPAGNDKEETCSFADTIVRCNLQSLAKLAENTSKFS | not soluble
GMSMPNHPNLTTADAKKILNKFNCLDIAPILKPSEKESVRRALILITKLSDYQILGICADTADEGLLAMKTYSHALGYEVPIDLPVVEGPVYIKLNGKNGLCYLDSYAGHHRGVLVSCQSYYEGGINEMYGHLPLDLFV | soluble
MGSDKIHHHHHHMIFTMKATKILICILCCTWICSCSLLEVDPVSTITSQSFWKTPGDAKAYLTGIYNKVRSLNNTSYYGEDRGDAFKAGEIGPTSVAWAHTLLESNAPSYRSAYNIIHHANLLFNKIESLKFTNETEKNRIKAECHFLRAYTYFLIVRIWGDAPIITDPVLSDNVELKPRSPKEDVMKLILEDIEQSVLLFPEDGYINKNLASKPAAYALKADVLMWKAKVLNGGNADLEEAIKAIDQVGGSGVSLLPDYAKVFANDNKKNNEIIFSFYFERYETGNLSIATNTTSRTDNLSMAVNLADAATSPNQSRHVYAPSDKARELYLKYPGDRRYKVAMIDLVDKDGNLILTQTNKFRGKAYSDDRYFDDDLIAYRWGDLLLLRAEANAALNKISESLVDLNEVRDRAGLEPYDGPKDKIAVEKEICDERLRELFIEQKRWFDLVRFHCGGTIDIYKEVPNLNDKPGYPLYFPINYNDMVLNDKLVQTDGYESNVER | not soluble
MSLDGKPLADKMRPTTLNNYMGQNKVLGENTMLRNLLQANDIPSIILWGPPGCGKTTLAHIIAKNAQKSSSRFVTLSATSASTSDVREFIKQAQNEQRLFKRKTILFVDEIHRFNKMQQDTFLPHVECGTITLIGATTENPSFQVNTALLSRCRVIVLEKLSVEAMETILMRAVDSLGLKVLKDGEQLVGSSSDVSETSVYVEEKALTTLAHLCDGDARTGLNGLQLSVQASLAAEKDPIKQGIVIKEEHIKEGLQRSHILYDRAGEEHYNCISALHKSMRGSDKNASLYWLGRMLEGGEDPLYVARRLVRFASEDIGLADPQALTQAVSTYQACHFIGMPECDVILAQCVMYMACAPKSVTVYSAYNKVKNCLKNHKGPLPPVPLHLRNAPTKLMKGLGYGKGYKYNPNFSEPVEQDYMPEEMKGVTEGHHHHHH | not soluble
MIYDFTTKISRKNLGSLKWDLMYSQNPEVGNEVVPLSVADMEFKNPPELIEGLKKYLDETVLGYTGPTEEYKKTVKKWMKDRHQWDIQTDWIINTAGVVPAVFNAVREFTKPGDGVIIITPVYYPFFMAIKNQERKIIECELLEKDGYYTIDFQKLEKLSKDKNNKALLFCSPHNPVGRVWKKDELQKIKDIVLKSDLMLWSDEIHFDLIMPGYEHTVFQSIDEQLADKTITFTAPSKTFNIAGMGMSNIIIKNPDIRERFTKSRDATSGMPFTTLGYKACEICYKECGKWLDGCIKVIDKNQRIVKDFFEVNHPEIKAPLIEGTYLQWIDFRALKMDHKAMEEFMIHKAQIFFDEGYIFGDGGIGFERINLAAPSSVIQESLERLNKALKDLKNRHLK | soluble
MRSLADFEFNKAPLCEGMILACEAIRRDFPSQDVYDELERLVSLAKEEISQLLPLEEQLEKLIALFYGDWGFKASRGVYRLSDALWLDQVLKNRQGSAVSLGAVLLWVANRLDLPLLPVIFPTQLILRIECPDGEIWLINPFNGESLSEHMLDGWLKGNISPSAELFYEDLDEADNIEVIRKLLDTLKASLMEENQMELALRTSEALLQFNPEDPYEIRDRGLIYAQLDCEHVALNDLSYFVERCPEDPISEMIRAQINNIAHKHIVLHMAGDPLEHHHHHH | soluble
MGSDKIHHHHHHMVTNVRIGAMQAYMVAEPWNTRAITGNENIGFTFAQGKEVWLGHPDRLLGVMESFIDKYPKTYRSLVKAMIEACQYCSKAENRQEVAELLTERSFTGARPKKKGAPIAKFTSPGILGNYNYGGFDGKDRTIKAADTTIFFDIPDNLPKQPGEHSTFLWRSRSIWLMTQAARWGQIKEFPKNADKLAQQGWRTDLYREIASEMGIQCPKDDYKVEPPEVFIDKKGFDPSDPVGYLNSFAIRANAPTNFFMS | not soluble
MSLHATMEDVAKLAGVSLKSVSRVINAEPHVSAKLRAKVEAAIAELNYVPDTAARSLAGSRAFIVGLLFDNPSPNYTMNIQKGVYETCRDQQHHLRIDNIDSTVPAEKFEAQLAAMVRNSRCDGFVLTPPLTDNVVLLDFLDRSGIRYVRIAPDIQPDRSPGVCIDDAAAAAAAARHLWELGHRRFAVVRGPASHGAAGRRRQGFIDELHRLGAENPIIEAEGNFSFESGIAAGAKVLAATPRPTAIFAANDDSAAGVMVACSQAGLKVPNDVSVCGFDDSWVAKSVWPYLTTVYQPIEEMGRAAAALLLRRDEPDNVLHELDFSLVVRASTAEGHHHHHH | soluble
MGSDKIHHHHHHMPQTAFIWDLDGTLIDSYEAIMEALAVTYRTFGFDFQAEPIRRYIIKESVGKLLDILAKQHGLSSEELKTFFIQEQVKRDDKIKLMPFAKEALQWAKDRGIKQFMYTHKGASTGAVLAELGIVSYFTEILTSVSGFERKPHPQGIFYLLEKYHLDRDRTYYIGDRRLDVEVAENAGIKSINLAQPQSAANQKIDNLQVLTQLKDF | not soluble
TARKCLLEKVEVITGEEAESNVLQMQCKLFVFDKTSQSWVERGRGLLRLNDMASTDDGTLQSRLVMRTQGSLRLILNTKLWAQMQIDKASEKSIHITAMDTEDQGVKVFLISASSKDTGQLYAALHHRILALRSRVE | soluble
MSLRAQSTNTIGVLVSRISNPFFAQLFDALERELNGYGFQVMVMQTHDDALAEQHFLDKLKQQQVDGVILASIENQQLVAQLSATYANQMVLLNEEATDIGIPMISLNHYQATKDALAYLYHQGHRRIAYATGGDFPSTHHGRSRTQAYLDFCEEQQLVVNNNWVFAQQHTIADGQALGKQLASLNPSDRPTAVFTNSDEVAVGVIDELQQQHFRVPDDMAVMGYDDQPFAAVAQVPLTTVRQPVAAMAQLAVDQLLHHLGRLQRPELAIDLSLDLIKRKSAEGHHHHHH | soluble
MGSDKIHHHHHHMIFSCPIDRSDVNEKLECEKGHKFGIIGGQIYDFLLKDVEVDKLLSRVIPIYESIWAPLGLLITSGKTYTSFLREIGEFIDGDLIIDVGTGTGKIFDFLNCKTCIGIDVSLRFLMYMKRKRTRVIAVRADANNLPLKSGIADGISSTLVLHMLSNPSFAIREMSRVLKSNGKCSIAVLANVNSIIGKTLSRWWKVNLRHYDYYINLLQENSLKVVERKELGPWEVINCIKIS | not soluble
MSEELEYLKVLLYASQVEAQKLRKQKEEKDALLKTFQVKLEVEALGNLPAQRNLSEDISKREIQSLKKQVTVLKEEIGLEGSKLAIANAVQEQLKTDLADEKEKCRFTREVTKLYQMNIQLDQPSRDQVADYLQFEIRTVKEVLRQKEEELEKLMAENKYNYFENCAEKCRIQEETSAARREADLLRDEMKTLVKNMNAKSEELLGQLRDSTEKCEEMEIDCNIQLLELQKRHELLNYYASLG | not soluble
MGHHHHHHGGHMSLTSALPRPAPSPYARRKTALVIGAGFGGLALGIRLQSLGFDTTILERLDGPGGRAYQKRTPDGYVFDMGPTVLTVPHFIEELFALERDRAGLDAPDYPPEVLSGERVKEGVSGGPHTSRYVTLVPILPFYRIVFHDGTYFDYDGDPESTRRQIAELAPGDLAGYERFHADAEAIFRRGFLELGYTHFGDVPTMLRVVPDLLKLDAVRTLFSFTSKYFQSDKLRQVFSFETLLVGGNPLSVPAIYAMIHFVEKTWGIHYAMGGTGALVRGLVQKFEELGGAIRYGAGVDEVLVDGNLPGKRTARGVRLESGEELRADLVASNGDWANTYLKRVRPSARLVNSDLRVKAASESMSLLVVYFGFRGGDDLPLKHHNILLGPRYEALLSEIFGTKRLGEDFSQYLHVPTLTDPALAPAGHHAAYTLVPVPHNGSGIDWDVEGPKLAEAALADIERRGLIPGLRERLTHFEFITPDYFAGTLDSYLGNAFGPEPRLVQSAFFRPHNRSEDLHNFYLVGAGAQPGAGTPSVMMSAKMTARLIAEDFGIHADIREGGS | soluble
